From patent US20050123563A1 (INTEGRAL MOLECULAR, published 2005) come the findings set out here.

For experiment [1], the target named is T1, Radiolabeled SDF-1α (Perkin-Elmer) (UniProt P48061-2 22-89).
T1 construct: also called radioligand
The experiment in a line: radioligand binding: fixed radiolabeled SDF-1α with CXCR3 lipoparticles, filtration, gamma counting.

The target of experiment [2] is T2, Protein A (ProA) beads bearing no antibody (Staphylococcal, UniProt P38507 37-477).
T2 construct: also called no antibody control
The experiment in a line: fluorescence microscopy of Protein A beads without antibody, probed with fluorescent lipoparticles containing CXCR4.

The target in experiment [3] is T3, SDF-1 (unlabeled chemokine, 8 kDa) (UniProt P48061-2 22-89).
T3 construct: also called 8 kDa natural ligand (SDF-1); cold ligand (Peprotech)
In words: radioligand competition on CXCR4 lipoparticles: increasing cold SDF-1 against 0.1 nM radiolabeled SDF-1α, 1 h at room temperature, filtration through GF/C filters, gamma counting [box at the upper right].

B1: CXCR3 incorporated into lipoparticles (receptor, UniProt P49682 1-368, looked up)
chain: MVLEVSDHQVLNDAEVAALLENFSSSYDYGENESDSCCTSPPCPQDFSLNFDRAFLPALYSLLFLLGLLGNGAVAAVLLSRRTALSSTDTFLLHLAVADTLLVLTLPLWAVDAAVQWVFGSGLCKVAGALFNINFYAGALLLACISFDRYLNIVHATQLYRRGPPARVTLTCLAVWGLCLLFALPDFIFLSAHHDERLNATHCQYNFPQVGRTALRVLQLVAGFLLPLLVMAYCYAHILAVLLVSRGQRRLRAMRLVVVVVVAFALCWTPYHLVVLVDILMDLGALARNCGRESRVDVAKSVTSGLGYMHCCLNPLLYAFVGVKFRERMWMLLLRLGCPNQRGLQRQPSSSRRDSSWSETSEASYSGL
notes: whole, on cells
Regarding B1, in experiment [1], the binding result is “no binding (tested: about 1.25 ug lipoparticles)”.

B2: CXCR4 (chemokine receptor, GPCR) incorporated into lipoparticles (receptor, UniProt P61073 1-352, looked up)
chain: MEGISIYTSDNYTEEMGSGDYDSMKEPCFREENANFNKIFLPTIYSIIFLTGIVGNGLVILVMGYQKKLRSMTDKYRLHLSVADLLFVITLPFWAVDAVANWYFGNFLCKAVHVIYTVNLYSSVLILAFISLDRYLAIVHATNSQRPRKLLAEKVVYVGVWIPALLLTIPDFIFANVSEADDRYICDRFYPNDLWVVVFQFQHIMVGLILPGIVILSCYCIIISKLSHSKGHQKRKALKTTVILILAFFACWLPYYIGISIDSFILLEIIKQGCEFENTVHKWISITEALAFFHCCLNPILYAFLGAKFKTSAQHALTSVSRGSSLKILSKGKRGGHSSVSTESESSSFHSS
notes: whole, on cells; also called CXCR4-lipoparticles; CXCR4-containing lipoparticles
In general, Kd refers to the free concentration of one partner at which half of the binding sites on the other are occupied at equilibrium, for simple one-to-one binding. Read a low Kd as tighter binding. Consider B2, for which the binding result in experiment [2] was “no binding”. The Kd in experiment [3] worked out at 8.53 nM.
